Here are results for four molecules from paper PMC10992505, “Customized exogenous ferredoxin functions as an efficient electron carrier” (Bioresources and Bioprocessing, 2021).

Sequences and labels used below:
B1: (Tepidiphilus thermophilus) (protein)
chain: VRTMEVAAVERPSEDIVVLHLTRPDRRPLPRWSPGAHIDIECGEPDRSRQYSLCSDPENRDAWRVAVQRDPASRGGSRWIHEEVRPGMLLRVRGPRNSFRLDEHAPRYLFLAGGIGITPIMTMAARAKELGTDYELHYSVRSRTSLIFVDELRQIHGDRLHVYVSEEGVRNDLAALIRRASAGTQIYACGPQRMLDTLERLIENRPEVTLRVEHFFGEPSHLDPAKERPFQVVLRNSGLTVEVPADKTLLEVLRAYNIEVQSDCEEGLCGTCEVSVVEGEVDHRDSVLTRAERRENRRMMCCCSRAKTERLVLDL
B2: KshA, Rieske-type oxygenase of 3-ketosteroid-9-hydroxylase from Rhodococcus erythropolis (enzyme)
chain: MALGTGPLTTTDASTQSGAGEEIREIEAAAPPARFARGWHCLGLSNTYRDGQPHQIEAFGTSLVVFADSKGDIKILDAYCRHMGGNLAHGTVKGDSIACPFHDWRWGGNGKCTAIPYARRVPPLAKTRAWTTLEKNGQLFVWHDPQGNPPPAEVTIPDIEGFGSDEWSDWSWNTLTIEGSHCREIVDNVVDMAHFFYVHYSFPKYFKNIFEGHVASQYMESVGREDIISGTNYGDPNAVLRSDASYFGPSYMIDWIKSEANGQIIETVLINCHYPISNNAFVLQYGAMVKKLPGMDDESTAAMAAQFTEGVEMGFLQDVEIWKNKAPIDNPLLSEEDGPVYQLRRWYNQFYTDVENVTEDMTKRFEFEIDTTRAVESWKREVAENVAARDAQALETTS
B3: Drosophila melanogaster Fdx2 (DmFdx2) (natural protein, UniProt Q8SZA8 30-152, looked up)
chain: STGLALKTKDVVNITFVRANGDKIKTSGKVGDSLLDVVVNNNVDLDGFGACEGTLTCSTCHLIFKTSDFEKLPDKPGDEELDMLDLAYELTDTSRLGCQITLSKDMEGLEVHVPSTINDARAA
notes: Drosophila melanogaster ferredoxin 2 (Fdx2), plant-type [2Fe-2S] ferredoxin; Carries a [2Fe-2S] cluster; Cloning into pET28a at NdeI would place the His6 tag at the N-terminus (surmised); also called free Fdx; plant-type Fdx; source: E. coli BL21(DE3), purified (Ni-NTA, Resource Q anion exchange)

In data set [1] the target is T1, PRF (CYP116B46 reductase domain, V465-L779) (Tepidiphilus thermophilus, UniProt A0A0K6ITW2, C736H/C766H, form not given).
T1 construct: gene Ga0061068_103196
T1 sequence (A0A0K6ITW2 entry or part of it C736H/C766H, form open): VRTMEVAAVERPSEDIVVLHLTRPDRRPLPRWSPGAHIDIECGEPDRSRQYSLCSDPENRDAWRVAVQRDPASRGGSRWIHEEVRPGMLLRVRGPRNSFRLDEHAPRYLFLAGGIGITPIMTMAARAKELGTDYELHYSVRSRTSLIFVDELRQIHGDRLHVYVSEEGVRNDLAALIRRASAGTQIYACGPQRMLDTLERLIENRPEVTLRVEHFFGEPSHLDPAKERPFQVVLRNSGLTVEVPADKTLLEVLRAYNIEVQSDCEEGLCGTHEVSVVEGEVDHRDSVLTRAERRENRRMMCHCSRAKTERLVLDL
Nature of the data set: NADH oxidation, absorbance […] nm. It counts as biochemical.

The subject of data set [2] is T2, TDO (TDO_R; toluene 2,3-dioxygenase reductase with TDO-Fdx).
T2 construct: gene todA
The following applies: electron acceptor not stated; MTDO, plant-type cluster; fusion numbering.

Substrate in the data set “purified protein”: NC(=O)C1=CN([C@@H]2O[C@H](COP(=O)(O)OP(=O)(O)OC[C@H]3O[C@@H](n4cnc5c(N)ncnc54)[C@H](O)[C@@H]3O)[C@@H](O)[C@H]2O)C=CC1
Nature of the data set: purified protein. In kind it is biochemical, Tepidiphilus thermophilus.

Data set [3] deals with B3. Nature of the data set: ITC; 0.2 mM DmFdx2 in the syringe, 2 uL injections into 0.02 mM KshA or PRF in the cell; 20 mM HEPES pH 7.4, 25 °C; one-site binding model. The following applies: both partners purified. (In general: In ITC the heat of successive injections is recorded.)
Data set [4] deals with PRF, reductase domain and Fdx (V465-L779) of Tepidiphilus thermophilus self-sufficient P450 CYP116B46 (Tepidiphilus thermophilus). The description is as above.
The target of data set [5] is B2. The data set is described as above. The following applies: both partners purified.

What is called Km is the substrate concentration at which the rate is half of its maximum. Take `NC(=O)C1=CN([C@@H]2O[C@H](COP(=O)(O)OP(=O)(O)OC[C@H]3O[C@@H](n4cnc5c(N)ncnc54)[C@H](O)[C@@H]3O)[C@@H](O)[C@H]2O)C=CC1` [NADH]: the results for the Km in data set [1] and in data set [2] were 63.1 ± 2.37 µM and 63.5 ± 2.95 µM, respectively.
One may read the kcat as the maximal rate divided by the concentration of active sites. The term kcat/Km denotes the turnover number divided by the Michaelis constant. Regarding B1, in the data set “purified protein”, the Km stood at 39.11 ± 1.49 µM, the catalytic constant (kcat) is 66.43 ± 0.34 s⁻¹ and the catalytic efficiency (kcat/Km) worked out at 1.7e+06 M⁻¹ s⁻¹.
In the case of B2, in data set [3], the Ka stood at 2.1e+07 M⁻¹.
As a reminder, the stoichiometry N is the number of molecules, sites or subunits per partner or assembly. In data set [4], B3 returned a Ka of 1.5e+07 M⁻¹, a dH of -1.91 kcal/mol and a stoichiometry N of 0.75. Besides, in data set [5], the dH is -1.43 ± 0.0311 kcal/mol and the “stoichiometry N” value was found to be 0.4 ± 0.02.
